Where a chain is given by its changes, count along the chain named. Like-named read-outs stand apart in the source and are kept apart here.
B1: mAb 33.2.2: murine monoclonal anti-R. gnavus lipoglycan antibody; VH SEQ ID NO: 4, VL SEQ ID NO: 9 (antibody, V domains shown)
VH: EVQLQESGPSLVKPSQTLSLTCSVTGDSITSGYWNWIRKFPGNKLEYLGYINYSGSTYYNPSLRSRISITRDTSKNQYYLQLNAVTTEDTATYYCARYYYHDDSYAMDNWGQGTSVTVSS
VL: DIQMNQSPSSLSASLGDTITITCHASQNINVWLSWFQQKPGNIPKLLIYKASNLHTGVPSRFSGTGSGTGFTLTISSLQPEDIATYYCQQGQSYPLTFGAGTKLELK
B2: mAb 34.2.2: murine monoclonal anti-R. gnavus lipoglycan antibody; VH SEQ ID NO: 13, VL SEQ ID NO: 15 (antibody, V domains shown)
VH: B1 VH with L48M, S56T, R64K, A84S, H101Y, D103S, N109Y
VL: B1 VL with T65S

How the values were obtained:
[1] = system: intestinal permeability of RG strain colonized mice; details: 0.15 mg/ml in drinking water, 10 days
Description: For each group mean+/−standard deviation (SD) (FIG. 9A). […] For the bottom panels, significance was tested by paired t test. *p<0.05 was considered statistically significant.
In vivo assay of intestinal permeability. To assess intestinal permeability, after a 4-hours fasting from food and water, mice were orally gavaged with 4,000-Da fluorescein (FITC)-dextran (FD4) (Sigma-Aldrich, St. Louis, MO) (250 mg/kg body weight) in doses of 200 μl, and blood was collected 3 hours later. The concentration of the FD4 was determined using a fluorimeter with an excitation wavelength of 490 nm and an emission wavelength of 530 nm. To assess concentration, FD4 in serum was then serially diluted to establish a standard curve.
Leaky gut recovery studies. Zonulin antagonist, larazotide acetate (known as AT-1001, or INN-202), was purchased from BOC Sciences, NY. Individual neonatally-colonized littermates from SPF mice, colonized with different RG strains, were retested after FD4 challenge, and those with abnormal levels then each received 0.15 mg/ml of the zonulin antagonist in drinking water, which was refreshed every day, for 10 consecutive days. After 24 hours rest, intestinal permeability was then retested.

[2] = system: purified LG from the S47-18 strain; experiment: Immunoblot, purified lipoglycan from S47-18 strain; type: binding, Ruminococcus gnavus
Description: (§1) In this assay, LG or nuclease-treated RG strain extracts were precoated overnight onto the well, then after blocking with bovine serum albumin, the mAbs, or isotype control at 1 μg/ml were incubated for 4 hours, then washed and developed (see below-described methods) (FIG. 15A). Immunoblot with mAb 33.2.3 (FIG. 15B) and immunoblot with 34.2.2 mAb (FIG. 15C), detect antigenically related LG oligobands in extracts of R. gnavus strains isolated from active Lupus nephritis strains. In each panel is shown samples of purified lipoglycan from the Lupus S47-18 strain, and the RG2 strain of R. gnavus. At left, extracts of whole bacteria are shown for the RG1 strain (from a healthy donor), and the Lupus-derived strains; S107-48, S107-86, S47-18, and for the RG2 strain.
(§2) Immunoblotting. Electrophoretic separation used Bis-Tris mini gels (Novex, Thermo Fisher) with bacterial extracts loaded at the same concentration, then transferred to membranes, which were incubated with sera diluted at 1:100, and incubated overnight at 4° C. For detection, anti-human IgG biotin conjugated (Jackson ImmunoResearch Labs, USA) was added and developed by IRDye® 800CW Streptavidin (LI-COR®).

[3] = system: extract of the RG1 type strain (ATCC29149); experiment: Direct binding ELISA, RG1 bacterial extract; parameters: species or system Ruminococcus gnavus; details: extract coated on ELISA plate; strain lacks the lipoglycan
Description: as §1, with “At left, extracts of whole bacteria are shown for the RG1 strain (from a healthy donor), and the Lupus-derived strains; S107-48, S107-86, S47-18, and for the RG2 strain.” left out
(§3) Assays of antigen-reactive IgG antibodies. […] For ELISA bound IgG antibodies were detected with Fc-gamma-specific anti-murine IgG HRP (eBioscience, San Diego CA), and for multiplex bead-based assay with anti-mouse IgG (Fc-specific) F(ab′)2 PE (Jackson ImmunoResearch, West Grove PA). Data were acquired on a Magpix instrument (Luminex) and reported as mean fluorescence intensity (MFI) values, as previously described (Pelzek et al., 2017; Pelzek et al., 2018a; Radke et al., 2018). Plasma zonulin were quantitated with a commercial ELISA Kit. […]
(§4) Direct binding ELISA. […] Binding was detected with goat anti mouse IgG HRP conjugated at 1:10,000 (Jackson ImmunoResearch), then TMB substrate was added to develop the plate.

[4] = system: extract of Lupus RG strain S107-48; experiment: Immunoblot, S107-48 extract; type: binding, Ruminococcus gnavus
Description: (§5) LPS from a Pseudomonas species.
as §1
(§6) To generate RG-specific monoclonal antibodies, 10 BALB/c mice were immunized with extract of the (CC55_001C), termed RG2 strain, emulsified in complete Freund's adjuvant and then boosted with lipoglycan (LG) purified from the Lupus S47-18 strain emulsified in incomplete Freund's adjuvant. The spleen from the mouse with the strongest post-immunization was fused with the NS-1 myeloma cells.
(§7) Immunoblotting. […]

[5] = system: extract of Lupus RG strain S107-86; experiment: Immunoblot, S107-86 extract; type: binding, Ruminococcus gnavus
Description: as §1, §2

[6] = system: bacterial extract of Lupus strain S47-18; experiment: Direct binding ELISA, S47-18 bacterial extract; parameters: species or system Ruminococcus gnavus; details: extract coated on ELISA plate
Description: as §1
(§8) Assays of antigen-reactive IgG antibodies. A custom multiplex bead-based array for the Magpix platform (Luminex, Austin TX) was created by coupling a variety of highly purified thymic native DNAs, purified cell wall lipoglycan (LG) from the RG2 strain (i.e., IgG anti-RG2 LG (formerly termed LG3) (Azzouz et al., 2019)), and the Lupus RG strain S47-18 (i.e., IgG anti-S47-18 strain LG), recombinant S. aureus proteins, endotoxins, and other bacterial antigens and control ligands, to individual microspheres, adapting the manufacturer's protocol and previous reports (Pelzek et al., 2017; Pelzek et al., 2018b; Radke et al., 2018). For antigen-reactive IgG detection, 1,000 microspheres per analyte per well were premixed, sonicated, and then diluted with addition of 100 μl of serum, as indicated. For ELISA bound IgG antibodies were detected with Fc-gamma-specific anti-murine IgG HRP (eBioscience, San Diego CA), and for multiplex bead-based assay with anti-mouse IgG (Fc-specific) F(ab′)2 PE (Jackson ImmunoResearch, West Grove PA). Data were acquired on a Magpix instrument (Luminex) and reported as mean fluorescence intensity (MFI) values, as previously described (Pelzek et al., 2017; Pelzek et al., 2018a; Radke et al., 2018). Plasma zonulin were quantitated with a commercial ELISA Kit. (MyBioSource, San Diego CA.).
(§9) Direct binding ELISA. To detect the reactivity of the murine monoclonal antibodies (mAb) […] and mAb 34.2.2 with the different RG strains, the ELISA plates were coated with the bacterial extracts from RG2, S47-18, S107-48, S107-86, RG1 as well as with the purified lipoglycan from the strains RG2 and S47-18. Next, the murine monoclonal antibodies were added at two concentrations (at 100 ng/ml and 25 ng/ml) in duplicate, incubated for 2 h at RT. Binding was detected with goat anti mouse IgG HRP conjugated at 1:10,000 (Jackson ImmunoResearch), then TMB substrate was added to develop the plate.

[7] = system: bacterial extract of Lupus strain S107-48; experiment: Direct binding ELISA, S107-48 bacterial extract; parameters: species or system Ruminococcus gnavus; details: extract coated on ELISA plate
Description: as §1, with “At left, extracts of whole bacteria are shown for the RG1 strain (from a healthy donor), and the Lupus-derived strains; S107-48, S107-86, S47-18, and for the RG2 strain.” left out
as §3, §4

[8] = system: purified LG from RG2 (RG2-LG); experiment: Immunoblot, purified lipoglycan from RG2 strain; type: binding, Ruminococcus gnavus
Description: as §5, §1, §2

[9] = system: extract of RG1 strain; experiment: Immunoblot, RG1 extract; type: binding, Ruminococcus gnavus; details: strain from a healthy donor, lacks the lipoglycan
Description: as §5, §1, §6, §7

[10] = system: extract of the RG2 strain; experiment: Immunoblot, RG2 extract; type: binding, Ruminococcus gnavus
Description: as §5, §1, §6, §7

[11] = system: bacterial extract of the RG2 strain (CC55_001C); experiment: Direct binding ELISA, RG2 bacterial extract; parameters: species or system Ruminococcus gnavus; details: extract coated on ELISA plate
Description: as §1, §8, §9

[12] = system: purified LG from the S47-18 strain; experiment: Direct binding ELISA, purified lipoglycan from S47-18 strain; parameters: species or system Ruminococcus gnavus; details: antigen coated on ELISA plate
Description: as §1, with “At left, extracts of whole bacteria are shown for the RG1 strain (from a healthy donor), and the Lupus-derived strains; S107-48, S107-86, S47-18, and for the RG2 strain.” left out
as §3, §4

[13] = system: extract of Lupus RG strain S47-18; experiment: Immunoblot, S47-18 extract; type: binding, Ruminococcus gnavus
Description: as §5, §1, §6, §7

[14] = system: bacterial extract of Lupus strain S107-86; experiment: Direct binding ELISA, S107-86 bacterial extract; parameters: species or system Ruminococcus gnavus; details: extract coated on ELISA plate
Description: as §1, §8, §9

[15] = system: purified LG from the RG2 strain; experiment: Direct binding ELISA, purified lipoglycan from RG2 strain; parameters: species or system Ruminococcus gnavus; details: antigen coated on ELISA plate
Description: as §1, §8, §9

Molecule	Immunoblot reactivity with purified LG from S47-18 strain [2]	ELISA reactivity with RG1 type strain extract [3]	Immunoblot reactivity with LG oligobands in S107-48 extract [4]	Immunoblot reactivity with LG oligobands in S107-86 extract [5]	ELISA reactivity with extract of Lupus strain S47-18 [6]	ELISA reactivity with extract of Lupus strain S107-48 [7]	Immunoblot reactivity with purified LG from RG2 strain [8]	Immunoblot reactivity with RG1 extract [9]	Immunoblot reactivity with LG oligobands in RG2 extract [10]	ELISA reactivity with extract of RG2 strain [11]	ELISA reactivity with purified LG from S47-18 strain [12]	Immunoblot reactivity with LG oligobands in S47-18 extract [13]	ELISA reactivity with extract of Lupus strain S107-86 [14]	ELISA reactivity with purified LG from RG2 strain [15]	further results
larazotide acetate	–	–	–	–	–	–	–	–	–	–	–	–	–	–	Gut barrier function (plasma FD4 after challenge), before vs after treatment ([1]; Lupus S47-18 strain colonized mice, p=0.01): normalized; Gut barrier function (plasma FD4 after challenge), before vs after treatment ([1]; Lupus S107-48 strain colonized mice, p=0.01): normalized; Gut barrier function (plasma FD4 after challenge), before vs after treatment ([1]; RG2 strain colonized mice, p=0.03): normalized
B1	bound	non-reactive	recognized oligoband antigen	recognized oligoband antigen	reactive	reactive	bound	no reactivity	recognized oligoband antigen	reactive	strongly react	recognized oligoband antigen	reactive	strongly react	ELISA reactivity with extract of Lupus strain S47-18 ([6]; listed as 33.2.3): reactivity; ELISA reactivity with extract of RG2 strain ([11]; listed as 33.2.3): reactivity; ELISA reactivity with extract of Lupus strain S107-86 ([14]; listed as 33.2.3): reactivity; ELISA reactivity with purified LG from RG2 strain ([15]; listed as 33.2.3): reactivity
B2	bound	non-reactive	recognized oligoband antigen	recognized oligoband antigen	reactive	reactive	bound	no reactivity	recognized oligoband antigen	reactive	strongly react	recognized oligoband antigen	reactive	strongly react	ELISA reactivity with extract of Lupus strain S47-18 ([6]; listed as 34.2.2): reactivity; ELISA reactivity with extract of RG2 strain ([11]; listed as 34.2.2): reactivity; ELISA reactivity with extract of Lupus strain S107-86 ([14]; listed as 34.2.2): reactivity; ELISA reactivity with purified LG from RG2 strain ([15]; listed as 34.2.2): reactivity

Source: US20260116956A1, “ANTIBODY BASED TREATMENT TO REDUCE GUT BACTERIAL GLYCAN AND ASSOCIATED BACTERIA” (priority 2022, published 2026)
